According to PMC3397948, “Cytoplasmic Sulfurtransferases in the Purple Sulfur Bacterium Allochromatium vinosum: Evidence for Sulfur Transfer from DsrEFH to DsrC” (PLoS ONE, 2012):
Several values for one entry are separate records, joined by “and”; a condition that tells them apart may be missing. Identical values can stand only once.

T1: DsrEFH from Allochromatium vinosum (DsrE2F2H2 heterohexamer), wild type (Allochromatium vinosum, UniProt O87896 1-130; O87897 1-136; O87898 1-102)
T1 construct: DsrE, subunit of DsrEFH, Allochromatium vinosum; conserved active-site Cys78; DsrF, subunit of DsrEFH, Allochromatium vinosum; DsrH, subunit of DsrEFH, Allochromatium vinosum; conserved Cys20; source: overproduced and purified as described earlier [22], [8], [3]; not shown: His-tag (subunit inferred: DsrE), N-terminal, kept; copies: 2 + 2 + 2
T1 sequence (looked up) 1: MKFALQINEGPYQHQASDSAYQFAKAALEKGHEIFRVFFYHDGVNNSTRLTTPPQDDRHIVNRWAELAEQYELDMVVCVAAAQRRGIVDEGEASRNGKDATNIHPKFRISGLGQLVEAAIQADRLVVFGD
T1 sequence (looked up) 2: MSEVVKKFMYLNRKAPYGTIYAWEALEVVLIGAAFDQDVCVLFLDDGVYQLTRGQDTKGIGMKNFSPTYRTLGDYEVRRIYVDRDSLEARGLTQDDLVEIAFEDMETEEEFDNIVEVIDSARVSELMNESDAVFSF
T1 sequence (looked up) 3: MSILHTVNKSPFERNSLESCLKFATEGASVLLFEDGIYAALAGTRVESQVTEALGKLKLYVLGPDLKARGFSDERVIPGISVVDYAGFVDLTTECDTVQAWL


Key:
[1] = target: T2, DsrEFH (Allochromatium vinosum, UniProt O87896); assay: MALDI-TOF mass spectrometry, mass increase (persulfide); assay type: binding; conditions: 2 mM NaSH, 1 h, 30°C, 50 mM Tris-HCl pH 7.5, 100 mM NaCl; covalent; at DsrE-Cys78
T2 construct: gene dsrE; recombinant, amino-terminal His-tag; alpha2beta2gamma2 heterohexamer; with Intracellular sulfur oxidation protein DsrF; Intracellular sulfur oxidation protein DsrH

[2] = target: T1, DsrEFH from Allochromatium vinosum …; assay: native gel or EMSA; Blue-native PAGE (10-15%), 4°C, 6 mA; DsrEFH pre-incubated with DsrC in 1:2 ratio as for the native gel; masses from a calibration curve of standards; conditions: both partners purified
[3] = target: T1, DsrEFH from Allochromatium vinosum …; assay: dynamic light scattering; DsrEFH (2 mg/ml) with or without DsrC (0.8 mg/ml), same ratio and conditions as for native gels, 30°C; apparent molecular mass from hydrodynamic diameter; conditions: both partners purified

Molecule | MALDI-TOF mass spectrometry, mass increase (persulfide) [1] | stoichiometry N [2] | stoichiometry N [3]
S [sulfide] | The persulfuration was attained by incubation with sulfide as well as with cysteine and IscS. | – | –
DsrC from Allochromatium vinosum, wild type (natural protein, UniProt O87899 1-112, looked up, DsrC, Allochromatium vinosum; conserved Cys100 and Cys111 (Cys111 in the penultimate position of the protein); Reduced with 25 uM TCEP before SPR; also called DsrC wild type; DsrC wt; source: overproduced and purified as described earlier [22], [8], [3]; not shown: His-tag, N-terminal, kept) MADTIEVDGKQFAVDEEGYLSNLNDWVPGVADVMAKQDNLELTEEHWDIINFLREYYEEYQIAPAVRVLTKAVGKKLGKEKGNSKYLYSLFPYGPAKQACRFAGLPKPTGCV | – | 1 DsrC per DsrE2F2H2 heterohexamer and 2 DsrC per DsrE2F2H2 heterohexamer | 1 DsrC:DsrEFH
